Paper PMC4666396, “Mammalian splicing factor SF1 interacts with SURP domains of U2 snRNP-associated proteins” (Nucleic Acids Research, 2015)

T1: His6-SF1-C320 (human, UniProt Q15637 1-320)
T1 construct: human SF1, C-terminal truncation to amino acid 320; it follows the naming of the other truncations; also called deletion to amino acid 320; source: E. coli XL1-Blue, purified (TALON resin, lysis in 8 M urea, dialyzed); not shown: His6, N-terminal, kept
T1 sequence (looked up): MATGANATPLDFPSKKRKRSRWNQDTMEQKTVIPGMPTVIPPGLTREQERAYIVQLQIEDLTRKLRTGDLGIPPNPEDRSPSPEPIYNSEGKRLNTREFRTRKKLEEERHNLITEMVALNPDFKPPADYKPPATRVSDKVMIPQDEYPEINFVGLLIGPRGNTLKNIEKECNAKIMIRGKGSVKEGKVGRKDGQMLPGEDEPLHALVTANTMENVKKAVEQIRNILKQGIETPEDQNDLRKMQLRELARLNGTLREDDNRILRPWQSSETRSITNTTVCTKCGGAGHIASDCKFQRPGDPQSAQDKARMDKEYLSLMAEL

T2: His6-SF1-C327 (human, UniProt Q15637 1-327)
T2 construct: human SF1, C-terminal truncation to residue 327; SF1-C370 is 1–370; source: E. coli XL1-Blue, purified (TALON resin, lysis in 8 M urea, dialyzed); not shown: His6, N-terminal, kept
T2 sequence (looked up): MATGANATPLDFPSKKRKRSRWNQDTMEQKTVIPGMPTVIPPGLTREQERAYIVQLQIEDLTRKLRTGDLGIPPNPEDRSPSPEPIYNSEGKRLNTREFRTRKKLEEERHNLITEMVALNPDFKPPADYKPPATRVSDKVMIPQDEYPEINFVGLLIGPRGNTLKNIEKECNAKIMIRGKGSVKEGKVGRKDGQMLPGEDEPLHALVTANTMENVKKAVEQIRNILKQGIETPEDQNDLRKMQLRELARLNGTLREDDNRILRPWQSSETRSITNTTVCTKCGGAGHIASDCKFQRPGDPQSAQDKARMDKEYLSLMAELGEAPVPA

T3: His6-SF1-C370 (human, UniProt Q15637 1-370)
T3 construct: human SF1, amino acids 1–370, the region common to all SF1 isoforms; in pTrcHisA; source: E. coli XL1-Blue, purified (TALON resin, lysis in 8 M urea, dialyzed); not shown: His6, N-terminal, kept
T3 sequence (looked up): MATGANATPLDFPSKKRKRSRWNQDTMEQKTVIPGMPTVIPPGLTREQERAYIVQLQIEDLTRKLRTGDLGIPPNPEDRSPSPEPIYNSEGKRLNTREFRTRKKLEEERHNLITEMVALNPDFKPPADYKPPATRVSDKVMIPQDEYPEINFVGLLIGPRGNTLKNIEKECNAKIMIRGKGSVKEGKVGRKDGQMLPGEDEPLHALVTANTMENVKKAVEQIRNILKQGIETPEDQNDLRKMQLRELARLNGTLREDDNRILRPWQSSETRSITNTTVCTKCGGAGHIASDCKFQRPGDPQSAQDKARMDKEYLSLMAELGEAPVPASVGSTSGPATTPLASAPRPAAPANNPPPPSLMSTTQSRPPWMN

T4: His6-MBP-SF1-C370 Δ306–326 (human, UniProt Q15637 1-370, Δ306–326, replaced by one KpnI site encoding Gly and Thr)
T4 construct: in pETMBP-1a; source: E. coli BL21, purified (TALON resin, lysis in 8 M urea, dialyzed); not shown: His6, N-terminal, kept; MBP, N-terminal, kept
T4 sequence (looked up): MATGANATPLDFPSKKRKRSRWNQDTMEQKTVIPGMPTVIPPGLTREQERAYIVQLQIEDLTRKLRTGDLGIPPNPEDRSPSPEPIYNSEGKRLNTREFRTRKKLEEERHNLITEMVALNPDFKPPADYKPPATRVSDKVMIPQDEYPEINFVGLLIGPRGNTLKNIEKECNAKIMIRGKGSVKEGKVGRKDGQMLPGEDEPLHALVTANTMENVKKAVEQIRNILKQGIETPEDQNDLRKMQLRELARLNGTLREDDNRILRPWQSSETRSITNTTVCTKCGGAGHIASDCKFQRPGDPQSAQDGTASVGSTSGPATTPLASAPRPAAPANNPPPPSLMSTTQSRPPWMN

T5: His6-SF1-C302 (human, UniProt Q15637 1-302)
T5 construct: source: E. coli XL1-Blue, purified (TALON resin, lysis in 8 M urea, dialyzed); not shown: His6, N-terminal, kept
T5 sequence (looked up): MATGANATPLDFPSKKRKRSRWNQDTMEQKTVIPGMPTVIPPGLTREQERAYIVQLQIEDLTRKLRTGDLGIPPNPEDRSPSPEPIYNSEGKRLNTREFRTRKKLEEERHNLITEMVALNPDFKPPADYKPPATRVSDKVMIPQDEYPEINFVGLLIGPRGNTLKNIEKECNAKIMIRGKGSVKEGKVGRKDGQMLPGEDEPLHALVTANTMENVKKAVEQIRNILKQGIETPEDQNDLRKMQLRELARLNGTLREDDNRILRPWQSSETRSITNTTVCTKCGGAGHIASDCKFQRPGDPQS

T6: His6-SF1-C315 (human, UniProt Q15637 1-315)
T6 construct: source: E. coli XL1-Blue, purified (TALON resin, lysis in 8 M urea, dialyzed); not shown: His6, N-terminal, kept
T6 sequence (looked up): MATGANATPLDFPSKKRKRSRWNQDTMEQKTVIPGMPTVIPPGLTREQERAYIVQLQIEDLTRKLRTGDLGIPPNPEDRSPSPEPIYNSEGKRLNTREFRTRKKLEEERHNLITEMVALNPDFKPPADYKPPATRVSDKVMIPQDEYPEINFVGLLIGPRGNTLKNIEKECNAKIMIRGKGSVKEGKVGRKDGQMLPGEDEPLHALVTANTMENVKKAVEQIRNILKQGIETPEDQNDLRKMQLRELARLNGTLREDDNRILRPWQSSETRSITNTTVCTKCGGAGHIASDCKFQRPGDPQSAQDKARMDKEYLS


Assays:
Experiment in all cases: pull-down; GST fusion proteins on glutathione-agarose; His6- or His6-MBP-tagged SF1 proteins in two-fold molar excess; NETN (20 mM Tris-HCl pH 8.0, 50 mM NaCl, 0.5% NP-40, 0.5 mM EDTA), 45 min 4°C; with or without RNase A; western blot with anti-His6
Details in all cases: both partners purified
His6-SF1-C320 = molecular target: T1, His6-SF1-C320
His6-SF1-C327 = molecular target: T2, His6-SF1-C327
His6-SF1-C370 = molecular target: T3, His6-SF1-C370
[1] = molecular target: T4, His6-MBP-SF1-C370 Δ306–326
His6-SF1-C302 = molecular target: T5, His6-SF1-C302
His6-SF1-C315 = molecular target: T6, His6-SF1-C315

binding result (His6-SF1-C320) | binding result (His6-SF1-C327) | binding result (His6-SF1-C370) | binding result [1] | binding result (His6-SF1-C302) | binding result (His6-SF1-C315) | Binder
binds | binds | binds | binds | binds | binds | GST-U2AF65-UHM (domain or fragment, UniProt P26368 367-475, looked up, U2AF homology motif (UHM) of U2AF65, amino acids 367–475; also called U2AF homology motif of U2AF65; source: E. coli XL1-Blue, purified (glutathione agarose)) QVQMGGHPTEVLCLMNMVLPEELLDDEEYEEIVEDVRDECSKYGLVKSIEIPRPVDGVEVPGCGKIFVEFTSVFDCQKAMQGLTGRKFANRVVVTKYCDPDSYHRRDFW
 | binds | binds |  |  |  | GST-CHERP-SURP (domain or fragment, UniProt Q8IWX8 1-75, looked up, single SURP domain of CHERP, amino acids 1–75, in pDEST15; also called single SURP domain of CHERP; source: E. coli BL21, purified (glutathione agarose)) MEMPLPPDDQELRNVIDKLAQFVARNGPEFEKMTMEKQKDNPKFSFLFGGEFYSYYKCKLALEQQQLICKQQTPE
 | binds | binds |  |  |  | GST-SF3a120-SURP1 (domain or fragment, UniProt Q15459 38-113, looked up, SURP1 of SF3a120, amino acids 38–113, in pDEST15; also called SURP1 of SF3a120; source: E. coli BL21, purified (glutathione agarose)) PVVGIIYPPPEVRNIVDKTASFVARNGPEFEARIRQNEINNPKFNFLNPNDPYHAYYRHKVSEFKEGKAQEPSAAI
